# Measured values reported in patent publication US20170313762A1.
# Target: vasopressin V2 receptor-RlucII (hV2R wt-RlucII) (human)
# Assay: cell-based or functional assay
substance,measurement,value
Oxytocin (from UniProt P01178 20-28) (peptide),EC50 of agonist-promoted receptor internalization (decrease of BRET between receptor-RlucII and lyn-rGFP),2.2 µM
